# Laboratory results as given in patent publication US20260217861.
# Tested on: mouse GPV with point mutation R476A in the thrombin cleavage site (Gp5^dThr platelets)
# Sequence (chain, as listed by the source R476A): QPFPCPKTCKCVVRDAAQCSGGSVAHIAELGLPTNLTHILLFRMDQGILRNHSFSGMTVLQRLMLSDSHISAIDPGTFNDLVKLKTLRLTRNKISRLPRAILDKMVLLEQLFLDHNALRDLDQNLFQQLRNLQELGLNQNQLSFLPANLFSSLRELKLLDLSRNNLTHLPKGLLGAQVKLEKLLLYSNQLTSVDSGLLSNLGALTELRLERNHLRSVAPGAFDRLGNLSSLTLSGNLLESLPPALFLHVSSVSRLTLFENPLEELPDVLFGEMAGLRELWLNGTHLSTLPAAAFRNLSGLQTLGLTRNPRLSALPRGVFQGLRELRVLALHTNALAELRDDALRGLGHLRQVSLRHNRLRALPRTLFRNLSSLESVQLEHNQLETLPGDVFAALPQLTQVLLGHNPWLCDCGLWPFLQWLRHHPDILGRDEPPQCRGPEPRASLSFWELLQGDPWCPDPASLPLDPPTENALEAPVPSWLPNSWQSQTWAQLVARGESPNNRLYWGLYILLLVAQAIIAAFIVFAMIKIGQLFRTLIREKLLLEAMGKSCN
substance,measurement,value
"human thrombin (Roche, Sigma-Aldrich #10602400001)","cleavage of GPV by thrombin (sGPV ELISA, flow cytometry)",GPV was completely resistant to cleavage by thrombin
